Source: patent US11827701B2, “IL-6 binding molecules” (argenx BV, priority 2012, dated 2023)
Numbering of substitutions follows the chain as printed.

Assays:
[1] = test system: IGROV-1 epithelial cells; assay: Epithelial ovarian cancer mouse xenograft (survival); type: in vivo; conditions: 4 or 20 mg/kg biweekly, nude mice
Procedure: The in vivo potency of clone 129D3 was determined using a mouse xenogaft model. IGROV-1 epithelial cells (5×10^6) were injected subcutaneously into nude mice. After three days, mice were administered 129D3 or CNTO328 biweekly, at a dosage of 4 or 20 mg/kg. There were 5 mice per group and 10 mice in the control group. Percentage survival of mice in each study group was determined each week and the results plotted as a survival curve.

[2] = Thermal stability (melting temperature), functional antibody measured in Biacore; type: physicochemical
Procedure: To examine the thermal stability of the germlined and the parental versions of 68F2 in full length human IgG1 format, antibody samples were incubated at a concentration of 100 μg/ml (in PBS) at 4, 50, 55, 60, 65, 70 and 75° C. for 1 hour. Following this, the samples were cooled down slowly during a period of 15 minutes to 25° C. and kept at this temperature for 2 hours, after which they were stored overnight at 4° C. Following centrifugation to remove precipitates (of denatured antibody), the concentration of functional antibody remaining in solution was measured using Biacore (1/10 dilution in PBS and 1/10 in HBSEP). The slope of the association curve obtained after injection on the IL-6 immobilized chip is a measure of the concentration of functional antibody.

[3] = Pharmacokinetic study, single intravenous dose; type: in vivo, cynomolgus monkey
Procedure: Pharmacokinetic analysis of antibody clone 129D3 formatted as various IgG1 molecules was performed. The following antibodies were analysed: Wild-type IgG1 129D3 (129D3-WT), IgG1 129D3 with the mutations M252Y/S254T/T256E in the Fc region (129D3-YTE), and IgG1 129D3 with the mutations H433K and N434F in the Fc region (129D3-HN).
Cynomolgus monkeys (3 per antibody tested) were injected intravenously with a single 5 mg/kg dose of 129D3-WT, 129D3-YTE, or 129D3-HN. Samples were taken at different time points and tested for plasma concentration of mAb by the ELISA. Specifically, a microtiterplate (Maxisorb Nunc) was coated with 1 ug/ml IL-6 (Immunotools) in PBS overnight at 4C. The plate was washed 2 times with PBS-Tween and blocked for 2 hours with 300 μl PBS-1% casein. After 2 washes with PBS-Tween, the samples were applied. All dilutions were made in 1% pooled blank plasma (this is a pool from 3 naive cynomolgus monkeys, see chapter 4.2). The samples were allowed to bind for 2 hours at RT. Plates were then washed 5 times with PBS-Tween and goat biotinilated anti-human IgG heavy and light chain monkey adsorbed polyclonal antibodies were applied at a 1000-fold dilution (Bethyl, catno: A80-319B) and allowed to bind for 1 hour at RT. After washing the plates 5 times with PBS-Tween, streptavidin conjugated with HRP (Jackson Immunoresearch 016-030-084) was applied at a 300,000-fold dilution and allowed to bind for 1 hour at RT. Plates were then washed 5 times with PBS-Tween and a 1:1 mixture of TMB (calbiochem CL07)-s(HS)TMB weakener (SDT, #sTMB-W) was added. The staining was allowed to proceed for 10 minutes and then stopped with 0.5 M […], after which the Optical Density was measured at 450 nm. The samples were analysed four times and 129D3-WT (from the same batch that was injected into the animals) was used for a standard curve.
The pharmacokinetic profiles for the different 129D3 IgG1 antibodies are shown graphically in FIG. 12 (the results are shown are the average result of the group of monkeys).

[4] = test system: RXF393 cells; assay: Renal cell cancer mouse xenograft model; type: in vivo; conditions: 3 mg/kg
Procedure: The in vivo efficacy of clones 68F2 was investigated in a renal cell cancer mouse xenograft model. […] Briefly, RXF393 cells (2×10^6) were injected subcutaneously at both lateral sides of a nude mouse. Tumors were allowed to grow to a volume between of 50 en 300 mm^3, prior to antibody administration. 90% of the injected mice developed a tumor. 40 mice were split into 5 groups of 8 mice. Each group was received intraperatoneal injection of either PBS (control) or a specific dose of clone 68F2 (1, 3, 10, or 30 mg/kg). Tumor size and survival was monitored twice per week.

[5] = Production level of IgG1 after transient expression in HEK293E cells; conditions: IgG1, protein A purified
Procedure: The VH and VL of the germlined versions of 68F2 were recloned in pUPE Heavy Chain and Light Chain expression vectors, respectively, for transient expression of full-length IgG1 antibodies. After transient expression in HEK293E cells, IgG1 antibodies were purified with protein A and quantified by measurement of OD280. Table 19 below summarizes the production levels of the germlined derivatives together with the levels of the 68F2 parental antibody. Potencies (in pM) were also measured in a 7TD1 based proliferation assay for each antibody.

[6] = single intravenous administration, cynomolgus monkey, non-compartmental

B1: 129D3: final germlined variant of 68F2; 129D3-WT is wild-type IgG1 129D3 (antibody, listed as Lama glama, V domains shown)
VH: EVQLQESGPGLVKPSQTLSLTCTVSGGSITSRYYAWSWIRQPPGKGLEWIGVIDYDGDTYYSPSLKSRVSISWDTSKNQFSLKLSSVTPADTAVYYCARDPDVVTGFHYDYWGQGTMVTVSS
VL: QSALTQPPSVSGTPGQSVTISCAGANNDIGTYAYVSWYQQLPGTAPKLMIYKVTTRASGIPDRFSGSKSGNTASLTISGLQAEDEADYYCASYRNFNNAVFGTGTKLTVL
modifications: IgG1 constant regions
notes: final germlined variant of 68F2; 129D3-WT is wild-type IgG1 129D3
in vivo potency (survival) [1]: superior to the benchmark CNTO328 IL-6 antibody
Tm higher than the parental 68F2 antibody ([2]; human IgG1): 3 °C
Tm ([2]; human IgG1, 100 μg/ml in PBS, 1 hour): around 70 °C
half-life ([3]; 5 mg/kg i.v.): about 15.6 days
MRT (Mean Residence Time) [3, 6]: 22.4 days
T½ (elimination half-life) [3, 6]: 15.6 days
k (mean elimination rate constant) [3, 6]: 0.0468 day⁻¹
survival relative to control [4]: effective at delaying death of mice relative to control
tumor outgrowth [4]: effective at inhibiting tumor outgrowth

B2: 129F2: germlined variant of 68F2, IgG1 (antibody, listed as Lama glama, V domains shown)
VH: B1 VH with S70T, P89A, A90E
VL: B1 VL with S17T, A82S, T103G
modifications: IgG1 constant regions
notes: germlined variant of 68F2, IgG1
production level / production yield [5]: 9 µg/mL
